Results published in a protein production outcome set (Wang et al. 2014).

Assay: label from the status in PepcDB records

| Sequence | protein production |
| --- | --- |
| MNAYSQSLAPANTPLRETFSLDGTWEFRHETDRAWRHAKVPAHWQACFEDLAVSFGSATYRRTFTLPAEWSAREIAIRFGAVSDLATVSINGTEIGRHEGGYLPFEFVIPPALLKAENTVEVLACLPDAYRDESGADFAEIPHGKQSWYGPQGGIWQSVLIEARDPAHISSLRLDPIWPEARLDLKARFASMVAGSLKIEIIGPQGMPVFTGNIPAAGNTLDHSIQLDSVAPWSPDSPNLYTITTILSADGVEIDSRQESFGFRRFEAKDGFLHLNGKPLYLRAALDQDYYPDGFGAPPSLDLLEDQLRKAKAMGLNCLRCHIKVPDPRYYEVADRLGMLIWSEIPNIETFTPASAERLRTTMEGILARDGNHPSIVIWTLINEDWGTRLREAAEQRQWISDMVDWLRVEDPLRLVVDNSACFPNVHVKTDINDYHFYRTAVDRREEWDTLCREFAGNADWTFSTEKEAVRTRKEPLVLSEFGVWGLPDPARLREKNGRDPWWMAYGATWADGTALPQGIEARFRELALEKVFGDLGRFIEKVQWYQYMNLKYEIEVIRTHAPIGGYVITELTDVHWEGNGLMDMARNPRVFAKALPAVNSDIVIAPGAARHAVYEGQTASFDIKVSSGGTALPEGSRLVWEFGAEKGEIPLPAMAPMQVHNAPITTTADAVPVPAIQKARFQVVSPDGSVLSQNFETLAVYGKRDALPPIRFASNDDGISERLSALGHVSVSPHEADVFITKDIDADRVEAIHSGQRVLQIVDKDPGRLRDDAPPRDGPMSIEIDPGAGGMVSGPYFSFPGYNLVNRHKSIWRGDWVGNFSWLRRDGVFAHVPGGPLFDLSFTGVAPHQVMTGLRPWEFQGRVYAGVVIGWVHKPAAFIIEKRLGRGKLVATTFRLHQEAPDVDPLATALYDGLFALATRP | failed |
| MNIKREQVFVWSGKIRLFHWINVIAILLLIVIGVVILNGKLFGVSTDGKILLKTIHVIVGYVFATNLIFRLIIAFIGKTYEKWGKMLPFNKGFTEELIEFTQQKRLTYKGHNPAGKLMVLALLSFMSVQMISGLVIAGTDIYYPPFGNYFIQSIAIDKDNLAVIKPYSKENIDEASYQAMRDFRKPFITAHVYSFYCLLFLIPLHIIGVIVAERRERSAIVSAMFNGYKYLPKDEPTDH | failed |
| MPYKLTLEACTKCGTCAEACTMYLGSGRKKIYSPVYRSDMLRKIYKKHFTLTGKLFGPLIGAKDPTEDDINALAESAYRCTVCRRCALACPFGLDNGLITRETRKIFADLGILEHHHHHH | not failed |
| MFQIIGIVLLFAMVFGSYIMAGGKMDVIIHAAPHELMAIGGAGVAAFLIGNSVTVIKATLGGFGTIFKGPKWKAQDYRDLLSLLFLLTKTMKSKGVIALEAHIEKPHESTIFSRYPKIAHDHFAVDFICDTLRMMTMNLEDPHQVEDAMEKQLEKHHHEAHGAAHALTQLSDGLPALGIVAAVLGVIKTMGSITEPPAVLGTMIGGALVGTFMGVFMAYGLVGPMATRLGGVLDEDHNFYKIIQAVLVAHLHGNAAQISVEIGRGNVPSAYQPSFAELEEALSQMPNE | failed |
| MLPAEYNVLVDYTGASTFTTFFFLLFFYVLDCYNVGHEDVRDSIARVSVASVLGIIFTGFTFYSFEHWRFERTTFVVLLLLVVGMTLLWRMVYHRFGQRFTTRPRVVLVGVDRAGRVRKLLNEGMPEAEILGYVGEGDVDPDAGPCLGAPYEPVEIARRYGATMLVMLPDAPVDEDIARDLLDAKLRGLMVVDIRTLYEHVAKRIPVDQIRDEWLLTEDGFNLNTQGSVRRLKRAFDVIVSLSLLITTAPIMLVAAIAIRMESPGPVIYRQKRVGINEQEFMVLKFRSMRTDAEKDGAVWATKGDSRVTRVGRFIRKVRIDELPQLWNVLRGDMSMIGPRPERMEFVRQLEKVIPYFYVRHSVKPGITGWAQVCYPYGASVEDARYKLEYDLYYIKNMSPLLDIQIVLKTVGVILFPKGAR | failed |
| MRITASLRTFCHLSTPHSDSTTSRLWIDEVTAVARQRDRDSFMRIYDHFAPRLLRYLTGLNVPEGQAEELVQEVLLKLWHKAESFDPSKASLGTWLFRIARNLYIDSVRKDRGWVQVQNSLEQLERLEAPVDRTLDYSQRQEQQLNSAIQNLPTDQAKVLRMSYFEALSHREISERLDMPLGTVKSCLRLAFQKLRSRIEES | failed |
| MKLFSSGRKTPTSSPASSHAGAMDETVGVTSTSEAANVATQPVPTPVEDVPNGVRTAAGWCWRMIVIAAFIYGLYQVLHAASEVSVPVAVALMLTAAMWPLANWLSRHHIHRGIASGICLLLLVILVGGVFTLVGAQIALQWRQLGDQSVASFKQALQWLAKSPLHTNEAQLTHLMQKAEAAMAGSQGRIASTAAAAGSQIGRFGAGLVMALFATFFFVYEGDKLAEKSAVLIPREHRAAILDAAKRGWVALVAYVRAAVIVAFVDGLGAGIGAAIIGSSMSVAIGALTFILAFVPIVGALTAGVVAVGVVLVTLGFFKAFIMLIVFVAVMQIEGHVLQPFLLGKAVSIHPLIVLLGIAVGAIISGIVGALFAIPIVAFGVAFIKALNPETPANEVPPNHDDLAAEHT | failed |
| MSITRRVRLSVDTCCYEAEIAGILRPQLLKGRMSVREEFDAWAAEGKDRGMEDRHWHTAKHVLARMPVEPGDTVLDLGTGSGYALRALRDTNDAGPCYGLDGSPEMLRNAREYTDDDGIGFLRGDFDALPFATDSIDHVFSMEAFYYASDPPHTLEEIARVLRPGGTANIAVNYYEENVHSHEWQEFIDIEMTRWSADEYREAFREAGLAVAAQDTIPDREVEIPPADTFPTDEFETREAMVERYRELGTLLTVGVATE | failed |
| MIDRRRVRHSFHRQALEYDAHAAVQKRVVERFLQILDDEVGSPLRILDVGAGTGLLARQLADCHPAALLSCVDLAPGMAATARQRLGSRALVAVADAEHLPFAGASFDCVVSTSTFQWLTTLDAAFGEVWRVLAPGGLFAFALFGHGTFHELKDSYRSALTAVGREDEDRTQRFFTEAEAGAALERTGFGVRRLCVEDEVEWHPDVPAFLRSVKRVGAGNASPLRGRGLAERRVMVEMMRVYGERYGGERGIPATYTVIYGVGVKSGRK | failed |
| MKAVIMAGGFGTRIQPLTSSIPKPMIPLLNRPIMLHIVELLKKYEITDLVMLLYHQPAVIKNFFRDGTDFGVKITYVTPLQDMGTAGAVKCAEKFLDERFLVISGDLLTDFNLQKIIDSHEDNKALATITLTSVKDPLQFGVVITDKEKRITQFLEKPGWGEVISDTINTGIYVFEPEIFAHIPEEENYDFSQDLFPKLLEQQKPLFGYTAKGYWRDIGNTDSYREAHHDIFKGKVNVKIDEAKQDLVGKDLRLGSDVNLDEHVTLEGTVVVGDNSQVFESAHIKDTVIGRNCTIEPGVRLNRCVIWDNVYVKKGAKLNDGVLCSNVRVGHGVVMEEGVIVADDTSIGEEAYIKRDVKIWPRKVIEAGATVTGNLIWGEKWKKSLFEGAMVKGLTNMELTPEFVAKLGCAYGTMLPKGSHIISGRDSYRSCRMLKRSFIGGLLSAGINVRDLTMVPMPVLRYKLRTFGEVGGIYFRQAIDDPASTEIVFLDGDGLDFSSSMGKNVERIFFKENFRRAHHTEPGALSEIPQQVTDFYREGFLHTIGKSPLQKKQFKVVIDFNHSSASQLLPGILTQMGCEVISLNAYVDEERGIQAVAERQQSLAQLSKIVATLEASAGFWLDPGTEGVIVVDETGKVYEGAELLPLMVGLALRSGEKGLFAVPVSAPSAIERMVQERGSAVTRTKSADRAMIEATLSSEVVLAGTMDGRFAFPKFQSAFDGMFAIAKTIELVAKGGLSISRVAAEIPQRVFLQTRVPCVWDMKGGIMRKMSEDSLDKEASFIDGIKVHFGEDWALVLPDQYLPYVHIVAEARDAKTAQKLLDEYKKKVEGWKRELQ | failed |
| MAVDDSEEGKPAESEAPLDLLQDWEHARAHAVPFSDSLLTECILVDQECVTNTKIKQEVNASSGCNTTPDSNTQDSDKIDYIESMDVCSNVEIESTEDSIVTGLNSGNAEDVDMTPGWRRKRNQKSKKSYIGTKDVLDQTLDKDIPLNKQNRRFPITARPVKRECVKKYERETFENGNERVYSTSSPRGRVYLLNDAAKL | failed |
| MRLRVDVIPGEHLAYPDVVLVVDVIRATTTAAAFLEAGAEALYWTPSLESALAFKDEDVVLAGETGGLKPPRFDLGNSPREALSAQVAGRVVVMSTTNGTKAAHAAARTAKHVLLASLYNAHAAARLARELATEEVAILCAGKEGRAGLDDLYTAGVLAEYLGFLGEVEPEDGARVALAVKRAYPDPLEALSLSAAALALKQVGLEADVPFCAQVAKSAAVPVLRGRVGEALIFKRA | not failed |
| MNGRVDYLVTEEEINLTRGPSGLGFNIVGGTDQQYVSNDSGIYVSRIKENGAAALDGRLQEGDKILSVNGQDLKNLLHQDAVDLFRNAGYAVSLRVQHRLQVQNGPI | not failed |
| MQTIIRVEKLAKTFNQHQALHAVDLNIHHGEMVALLGPSGSGKSTLLRHLSGLITGDKSVGSHIELLGRTVQREGRLARDIRKSRAHTGYIFQQFNLVNRLSVLENVLIGALGSTPFWRTCFSWFTGEQKQRALQALTRVGMVHFAHQRVSTLSGGQQQRVAIARALMQQAKVILADEPIASLDPESARIVMDTLRDINQNDGITVVVTLHQVDYALRYCERIVALRQGHVFYDGSSQQFDNERFDHLYRSINRVEENAKAA | failed |
| MRVPALKPILLQLHSVAGLVLAAVLVLVALTGAVMSFEDEIRGALDAGRVQLAPHAGSRMPLDALIAKLQAGGDPVASITMPRSAASAAEVRFARKPDHTRPAPLYLDPYTGESLGHPAADAFFATVRKLHRWLLLPGDGNGYGRTITGVAALGLLAMLLTGLVLRWPHRPGSIKVWLKPHWQLRGRGLHRSLHAVIGTWVLLLYLIMTLTGLWWSFDWYKTAATWLLARSPVTMQPPNRAAVTAAPSAAISLDRVWATLVAERGDRFEAARLTLPSGREGTVRVRAWLTDARDGAHDEFRIDGRSGQVLSADIYADKTIGEKVLARVLDIHRGSIFGWPGQLLFMLAAAAMPLFGVTGVLLYLSRRRHQRMQRAARAKVG | failed |
| MNRFLTSIVAWLRAGYPEGIPPTDSFAVLALLCRRLSHDEVKAVANELMRLGDFDQIDIGVVITHFTDELPSPEDVERVRARLAAQGWPLDDVRDREEHA | not failed |
| TYNYYDHAASAGTGQYLNDVQVETIELPVDYDADFVIPVYGDSMEPKYHSGDYVFVKLSVELTDGDIGVFEYYGDAYIKQLLINDKGAFLHSLNQCGDYPDIPIDRDSDFRIIGEVMGSYRER | failed |
| MRTPTTILLLVGAILFSGAGYVRSDASDHRYKEGDTVPLYANKVGPFHNPSETYRYFDLPFCIPEGVKEKKEALGEVLNGDRLVSAPYKLNFRDEKESEVYCNKKLSKEEVKQFRKAVEKDYYFQMYYDDLPIWGFIGKVDKDIKSDPSEFKYFLYKHIQFEILYNKDRVIEISARMDPHSLVDLTEDKEVDAEFMYTVKWKETETPFEKRMEKYSMSSSLPHHLEIHWFSIINSCVTVLLLTGFLATILMRVLKNDFMKYAQDEEAADDQEETGWKYIHGDVFRFPTHNSLFAASLGSGTQLFTLTIFIFMLALVGVFYPYNRGALFTALVVIYALTSGIAGYTSASFYCQLEGKSWVRNLLLTGCLFCGPLFLTFCFLNTVAITYTATAALPFGTIVVIVLIWTLVTSPLLVLGGIAGKNSKAEFQAPCRTTKYPREIPPLPWYRSAIPQMAMAGFLPFSAIYIELYYIFASVWGHRIYTIYSILFIVFIILIIVTAFITVALTYFQLAAEDHQWWWRSFLCGGSTGLFIYAYCLYYYYARSDMSGFMQTSFFFGYMACICYGFFLMLGTVGFRAALLFVRHIYRSIKCE | failed |
| MNLVQAFLLSFTAFFAIMNPFANLPMFVSLTADNNRKEVDAIARLAFIVATVIVALFALLGNYIFSIFGINLSALRIMGGIILGLIGYHMIQGNVSPIQHDPKQSVKDSINSNNTDVAISPLAMPVLAGPGTIATTMNLSSSTNPFIVISAFVVLSVITYFIFIYGEQIMAKLGNNIMNVITKLMGLILATIGVRMLIMGVQVAFHW | failed |
